Our source for the Kd and Classification values is patent US20050282743A1, “Molecular interactions in cells” (Arbor Vita Corporation, priority 2001, published 2005).

The term Kd denotes the equilibrium constant for the complex coming apart. Higher therefore signals weaker binding.

In experiment [1] the target is T1, GST-PTPL1 PDZ domain 2 (Homo sapiens (Human)), Q12923.
T1 chain: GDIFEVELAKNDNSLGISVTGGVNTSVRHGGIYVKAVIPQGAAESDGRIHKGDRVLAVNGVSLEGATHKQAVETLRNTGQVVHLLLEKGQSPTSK
Kind of experiment: G assay titration, PDZ 1 ug/ml.

In experiment [2] the target is T2, GST-KIAA0807(S) PDZ domain 1 (Homo sapiens (Human)), Q6P0Q8.
T2 chain: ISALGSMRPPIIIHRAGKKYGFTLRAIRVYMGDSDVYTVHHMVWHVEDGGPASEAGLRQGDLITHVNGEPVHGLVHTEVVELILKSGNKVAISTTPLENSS
Kind of experiment: G assay titration, PDZ 0.5 ug/ml.

Experiment [3] deals with T2, GST-KIAA0807(S) PDZ domain 1 (Homo …). Kind of experiment: G' assay. Further: key of the grades not given here.
The target of experiment [4] is T3, GST-Syntrophin gamma 1 PDZ domain 1 (Homo sapiens (Human)), Q9NSN8.
T3 chain: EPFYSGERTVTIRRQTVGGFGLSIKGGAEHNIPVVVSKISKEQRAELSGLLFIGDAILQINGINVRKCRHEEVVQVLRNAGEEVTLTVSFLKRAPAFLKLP
The experiment is described as follows: G' assay. Further: key of the grades not given here.

The target in experiment [5] is T4, GST-GRIP 1 PDZ domain 3 (Homo sapiens (Human)), Q9Y3R0.
T4 chain: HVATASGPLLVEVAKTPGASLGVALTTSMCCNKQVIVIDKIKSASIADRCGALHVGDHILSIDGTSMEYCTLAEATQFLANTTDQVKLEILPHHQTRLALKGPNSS
The experiment is described as follows: G' assay. Further: key of the grades not given here.

The target of experiment [6] is T5, GST-Shank 1 PDZ domain 1 (Homo sapiens (Human)), Q9UPX8.
T5 chain: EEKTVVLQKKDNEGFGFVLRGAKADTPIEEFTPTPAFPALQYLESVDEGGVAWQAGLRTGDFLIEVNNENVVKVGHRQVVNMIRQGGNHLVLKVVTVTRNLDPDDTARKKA
Kind of experiment: G' assay. Further: key of the grades not given here.

Experiment [7] concerns the target T6, GST-AIPC PDZ domain 1 (Homo sapiens (Human)), O15018.
T6 chain: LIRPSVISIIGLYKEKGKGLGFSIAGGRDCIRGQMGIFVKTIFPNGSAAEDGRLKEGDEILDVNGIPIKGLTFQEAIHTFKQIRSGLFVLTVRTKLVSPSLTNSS
Kind of experiment: G' assay. Further: key of the grades not given here.

The target of experiment [8] is T7, GST-FLJ 10324 PDZ domain 1 [GST: P08515].
T7 chain: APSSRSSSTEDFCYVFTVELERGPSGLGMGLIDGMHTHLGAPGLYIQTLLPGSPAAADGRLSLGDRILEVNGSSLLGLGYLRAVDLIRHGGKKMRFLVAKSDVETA
Kind of experiment: G' assay. Further: key of the grades not given here.

The target of experiment [9] is T8, GST-INADL PDZ domain 8 (Homo sapiens (Human)), Q8NI35.
T8 chain: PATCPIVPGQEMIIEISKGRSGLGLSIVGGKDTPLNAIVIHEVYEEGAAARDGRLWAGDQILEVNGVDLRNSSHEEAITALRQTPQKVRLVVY
The experiment is described as follows: G' assay.

For experiment [10], the target named is T9, GST-HEMBA 1003117 PDZ domain 1 (Homo sapiens (Human)), Q96JH8.
T9 chain: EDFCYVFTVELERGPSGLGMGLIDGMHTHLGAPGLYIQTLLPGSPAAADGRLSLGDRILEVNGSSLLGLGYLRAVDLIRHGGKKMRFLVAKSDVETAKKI
Kind of experiment: G' assay.

Experiment [11] concerns the target T10, GST-FLJ00011 PDZ domain 1 (Homo sapiens (Human)), Q9H5P4.
T10 chain: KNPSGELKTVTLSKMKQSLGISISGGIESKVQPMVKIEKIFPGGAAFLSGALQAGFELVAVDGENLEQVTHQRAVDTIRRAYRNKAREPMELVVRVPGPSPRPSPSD
The experiment is described as follows: G' assay.

For experiment [12], the target named is T1, GST-PTPL1 PDZ domain 2 (Homo sapiens …). Kind of experiment: G' assay.
Experiment [13] has as its target T11, GST-PTPL1 PDZ domain 4 (Homo sapiens (Human)), Q12923.
T11 chain: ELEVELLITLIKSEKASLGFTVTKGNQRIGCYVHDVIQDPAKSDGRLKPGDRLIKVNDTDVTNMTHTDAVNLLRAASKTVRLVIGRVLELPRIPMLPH
The experiment is described as follows: G' assay.

The target of experiment [14] is T12, GST-MINT1 PDZ domains 1, 2, Q02410.
T12 chain: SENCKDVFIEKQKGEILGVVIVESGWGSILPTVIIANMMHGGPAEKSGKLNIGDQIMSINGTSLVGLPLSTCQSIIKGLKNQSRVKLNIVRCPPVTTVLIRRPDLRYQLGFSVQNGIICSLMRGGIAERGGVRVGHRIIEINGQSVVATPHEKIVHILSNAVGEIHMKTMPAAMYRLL
The experiment is described as follows: G' assay.

In experiment [15] the target is T13, GST-TIP1 PDZ domain 1 (Table 9 insert) (Homo sapiens (Human)), O14907.
T13 chain: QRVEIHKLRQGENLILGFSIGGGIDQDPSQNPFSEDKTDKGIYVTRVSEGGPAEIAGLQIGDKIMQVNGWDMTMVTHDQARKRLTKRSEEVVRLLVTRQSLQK
The experiment is described as follows: G' assay.

For experiment [16], the target named is T14, GST-MINT1 PDZ domain 2 (Mus musculus (Mouse)), B2RUJ5.
T14 chain: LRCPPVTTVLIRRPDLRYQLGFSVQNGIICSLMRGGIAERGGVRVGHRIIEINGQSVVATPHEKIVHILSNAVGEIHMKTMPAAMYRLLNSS
The experiment is described as follows: G' assay.

Experiment [17] has as its target GST-Atrophin-1 Interacting Protein PDZ domain 5 (Rattus norvegicus (Rat)), O88382. The experiment is described as follows: G' assay. Further: key of the grades not given here.
Experiment [18] deals with T15, GST-KIAA1634 PDZ domain 2 (Homo sapiens (Human)), Q5TCQ9.
T15 chain: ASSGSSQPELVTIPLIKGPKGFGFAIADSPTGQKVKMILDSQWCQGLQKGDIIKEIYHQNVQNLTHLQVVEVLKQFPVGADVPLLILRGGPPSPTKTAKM
Kind of experiment: G' assay.

Experiment [19] concerns the target T16, GST-MUPP1 PDZ domain 13 (Homo sapiens (Human)), O75970.
T16 chain: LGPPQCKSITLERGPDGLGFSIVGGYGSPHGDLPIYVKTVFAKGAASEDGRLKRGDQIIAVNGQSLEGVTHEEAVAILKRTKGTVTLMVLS
Kind of experiment: G' assay.

In experiment [20] the target is GST-PIST PDZ domain 1 (Mus musculus (Mouse)), Q8BH60. Kind of experiment: G' assay. Further: key of the grades not given here.
Experiment [21] concerns the target GST-KIAA807 [GST: P08515]. Kind of experiment: G' assay.
Experiment [22] has as its target GST-BAI-1 Associated Protein PDZ domain 3 (Homo sapiens (Human)), Q96QZ7. Kind of experiment: G' assay. Further: key of the grades not given here.
In experiment [23] the target is T5, GST-Shank 1 PDZ domain 1 (Homo sapiens …). Kind of experiment: G assay titration, PDZ 5 ug/ml.
Experiment [24] concerns the target GST-TAX IP2 PDZ domain 1 [GST: P08515]. Kind of experiment: G assay titration, PDZ 1 ug/ml.
For experiment [25] the target is unchanged. Kind of experiment: G' assay.
The target of experiment [26] is T2, GST-KIAA0807(S) PDZ domain 1 (Homo …). The experiment is described as follows: G assay titration, PDZ 0.3 ug/ml.
For experiment [27], the target named is T17, GST-EZRIN Binding Protein 50 PDZ domain 1 (Homo sapiens (Human)), O14745.
T17 chain: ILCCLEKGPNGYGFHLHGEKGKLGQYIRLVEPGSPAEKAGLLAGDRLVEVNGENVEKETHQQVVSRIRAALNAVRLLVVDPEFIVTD
The experiment is described as follows: G' assay.

Experiment [28] concerns the target T18, GST-Shank 3 PDZ domain 1 (human (hypothetical, computer cloned)), Q9BYB0.
T18 chain: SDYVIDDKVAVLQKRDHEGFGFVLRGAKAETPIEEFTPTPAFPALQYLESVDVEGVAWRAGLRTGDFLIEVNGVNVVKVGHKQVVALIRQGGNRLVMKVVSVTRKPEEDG
The experiment is described as follows: G' assay.

In experiment [29] the target is T19, GST-EZRIN Binding Protein 50 PDZ domain 2 (Homo sapiens (Human)), O14745.
T19 chain: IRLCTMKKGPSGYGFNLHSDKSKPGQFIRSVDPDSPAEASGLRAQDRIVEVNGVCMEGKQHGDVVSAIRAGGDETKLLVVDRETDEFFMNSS
Kind of experiment: G' assay.

Experiment [30] addresses T20, GST-PDZK1 PDZ domain 2 (Homo sapiens (Human)), Q5T2W1.
T20 chain: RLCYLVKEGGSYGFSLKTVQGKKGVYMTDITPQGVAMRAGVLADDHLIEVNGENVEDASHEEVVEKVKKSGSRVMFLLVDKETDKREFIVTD
The experiment is described as follows: G' assay.

The target in experiment [31] is T21, GST-PDZK1 PDZ domains 2, 3, 4, Q5T2W1.
T21 chain: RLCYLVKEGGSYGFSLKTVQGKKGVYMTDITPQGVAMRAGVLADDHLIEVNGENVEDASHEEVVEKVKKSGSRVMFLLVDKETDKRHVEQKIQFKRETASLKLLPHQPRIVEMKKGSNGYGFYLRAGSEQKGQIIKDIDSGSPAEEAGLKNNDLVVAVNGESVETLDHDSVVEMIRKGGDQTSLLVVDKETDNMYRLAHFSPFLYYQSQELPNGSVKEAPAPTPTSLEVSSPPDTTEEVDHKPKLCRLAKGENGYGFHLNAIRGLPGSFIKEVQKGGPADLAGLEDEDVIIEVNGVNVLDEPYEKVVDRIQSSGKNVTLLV
The experiment is described as follows: G' assay.

In experiment [32] the target is T22, GST-KIAA0561 PDZ domain 1 (Homo sapiens (Human)), O60307.
T22 chain: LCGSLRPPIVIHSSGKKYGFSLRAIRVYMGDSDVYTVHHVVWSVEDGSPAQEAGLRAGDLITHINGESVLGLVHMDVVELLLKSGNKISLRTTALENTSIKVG
The experiment is described as follows: G' assay.

Experiment [33] has as its target T20, GST-PDZK1 PDZ domain 2 (Homo sapiens …). Kind of experiment: G assay titration, PDZ 5 ug/ml.

Chain of GST-KIAA807 [GST: P08515] (P08515 whole entry, the tested form may be a part): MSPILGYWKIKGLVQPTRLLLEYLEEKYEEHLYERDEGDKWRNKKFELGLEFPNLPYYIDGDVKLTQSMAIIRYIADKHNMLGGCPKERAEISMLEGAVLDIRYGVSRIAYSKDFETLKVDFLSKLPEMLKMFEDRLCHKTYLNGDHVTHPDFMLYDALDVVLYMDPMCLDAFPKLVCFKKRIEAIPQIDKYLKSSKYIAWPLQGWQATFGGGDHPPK
Chain of GST-TAX IP2 PDZ domain 1 [GST: P08515] (P08515 whole entry, the tested form may be a part): as above
Chain of GST-BAI-1 Associated Protein PDZ domain 3 (Homo sapiens (Human)), Q96QZ7 (Q96QZ7 other isoform, or with tags, fused parts or gaps): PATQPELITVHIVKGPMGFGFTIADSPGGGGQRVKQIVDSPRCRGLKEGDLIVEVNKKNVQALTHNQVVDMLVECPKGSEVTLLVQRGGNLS
Chain of GST-Atrophin-1 Interacting Protein PDZ domain 5 (Rattus norvegicus (Rat)), O88382 (O88382 1128-1225): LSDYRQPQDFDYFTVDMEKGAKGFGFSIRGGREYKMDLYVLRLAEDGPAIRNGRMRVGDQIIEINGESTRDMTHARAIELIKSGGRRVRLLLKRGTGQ

For DSDPENEPFDEDQHTQITKV (modifications not checked) [PTEN], the Kd in [1] was 300 nM; in [2], 300 nM; in experiment [23] it was 1500 nM. Moreover, the Classification in experiment [3] was found to be 5 A450 class; in [4], 1 A450 class; in experiment [5] it was 1 A450 class; in [6] it was 3 A450 class; in experiment [7] it was 1 A450 class; in experiment [8], 1 A450 class. The Classification worked out at 1 A450 class in [9]; 1 A450 class in experiment [10]; 3 A450 class in experiment [11]; 4 A450 class in [12]; 1 A450 class in experiment [13]; 1 A450 class in experiment [14]. Besides, the Classification is 2 A450 class in experiment [15]; 1 A450 class in [16]; 2 A450 class in experiment [17]; 5 A450 class in [18]; 5 A450 class in experiment [19]; 1 A450 class in experiment [20]. The Classification stood at 5 A450 class in experiment [21] and 2 A450 class in experiment [22].
Turning to VDSERRPHFPQFSYSASSTA (modifications not checked) [AKT1], in experiment [24], the Kd is 2500 nM. Further, the Classification worked out at 1 A450 class in experiment [3], 4 A450 class in experiment [25] and 1 A450 class in experiment [21].
Take PSWRRSSLSESENATSLTTF (modifications not checked) [BLR-1]: the dissociation constant Kd in experiment [26] is 1000 nM; in [33], 2000 nM. Besides, the Classification is 2 A450 class in experiment [3]; 3 A450 class in experiment [27]; 3 A450 class in [6]; 3 A450 class in experiment [28]; 3 A450 class in experiment [29]; 1 A450 class in [30]. Also, the Classification in experiment [31] was determined as 1 A450 class; in experiment [21] it was 2 A450 class; in experiment [32] it was 1 A450 class.
